The values below come from PMC9011129.

Series [1] addresses T1, Larp-DM15 (Drosophila melanogaster, UniProt Q9VAW5 1330-1481). The series can be described thus: EMSA.
In series [2] the target is T1, Larp-DM15. Description: EMSA. The source holds these as a separate data set. For orientation: Mobility shift assays separate free from complexed probe on a gel.

Where two headings read alike, the source gives them in different places.

T1 sequence (Q9VAW5 1330-1481): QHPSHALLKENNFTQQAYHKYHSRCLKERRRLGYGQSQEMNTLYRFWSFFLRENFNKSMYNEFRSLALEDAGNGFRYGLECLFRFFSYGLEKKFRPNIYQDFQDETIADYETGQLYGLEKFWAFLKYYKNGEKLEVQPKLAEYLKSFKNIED

B1: RpL30 42-mer (ssRNA)
RNA: CUUUUGCCAUUGUCAGCCGACGAAGUGCUUUAACCCAAACUA
modifications: 5' cap (Vaccinia capping system)
For B1, in series [1], the binding result was “binds”.

B2: Purine-substituted RpL30 control (ssRNA)
RNA: GAAAAGCCAUUGUCAGCCGACGAAGUGCUUUAACCCAAACUA
modifications: 5' cap (Vaccinia capping system)
For B2, the binding result in series [1] is recorded as “no binding”.

B3: Non1 42-mer (ssRNA)
RNA: CUUUUUGGAAUACGAAGCUGACACCGCGUGGUGUUUUUGCUU
modifications: 5' cap (Vaccinia capping system)
With B3, the binding result in series [2] is “binds”.
